Substitutions are numbered along the chain they refer to.

The target of experiment [1] is T1, human GARP (glycoprotein A repetitions predominant, LRRC32) on the cell surface (human, UniProt Q14392 20-662).
T1 construct: whole, on cells; also called hGARP; free GARP
T1 sequence (looked up): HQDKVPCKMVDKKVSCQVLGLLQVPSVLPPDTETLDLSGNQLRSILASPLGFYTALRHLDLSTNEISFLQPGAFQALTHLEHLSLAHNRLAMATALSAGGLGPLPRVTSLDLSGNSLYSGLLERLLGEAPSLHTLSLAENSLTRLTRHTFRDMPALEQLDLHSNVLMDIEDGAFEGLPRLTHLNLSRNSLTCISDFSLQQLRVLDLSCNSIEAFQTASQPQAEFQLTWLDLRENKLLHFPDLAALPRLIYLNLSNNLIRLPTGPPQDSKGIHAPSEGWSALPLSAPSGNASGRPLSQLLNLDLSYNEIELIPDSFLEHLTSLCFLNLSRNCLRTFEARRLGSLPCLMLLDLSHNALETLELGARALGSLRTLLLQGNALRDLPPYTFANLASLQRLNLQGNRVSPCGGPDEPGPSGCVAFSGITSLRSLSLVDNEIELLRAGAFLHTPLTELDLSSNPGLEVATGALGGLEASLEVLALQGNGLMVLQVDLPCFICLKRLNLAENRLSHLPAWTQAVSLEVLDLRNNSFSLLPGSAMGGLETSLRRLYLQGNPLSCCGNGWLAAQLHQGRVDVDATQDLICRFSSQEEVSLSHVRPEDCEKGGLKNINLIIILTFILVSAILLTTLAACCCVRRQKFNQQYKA
Briefly: flow cytometry on human Tregs (drawn table). Background: In flow cytometry, cells or beads pass a laser one at a time.

Experiment [2] addresses T1, human GARP (glycoprotein A repetitions …). Briefly: FACS, Ag(+) cells, 0 ug/ml antibody (blank).
Experiment [3] has the same target. Briefly: FACS, Ag(+) cells, culture supernatant, 1 ug/ml.
Experiment [4] shares this target. Briefly: FACS, Ag(+) cells, culture supernatant, 5 ug/ml.
Experiment [5] shares this target. Briefly: FACS, Ag(+) cells, culture supernatant, 0.2 ug/ml.
The target is the same in experiment [6]. Briefly: FACS, Ag(+) cells, supernatant heated 70 C 5 min, 1 ug/ml.
For experiment [7] the target is unchanged. Briefly: FACS, Ag(+) cells, supernatant heated 70 C 5 min, 5 ug/ml.
For experiment [8] the target is unchanged. Briefly: FACS, Ag(+) cells, supernatant heated 70 C 5 min, 0.2 ug/ml.
The target is the same in experiment [9]. Briefly: FACS, Ag(+) cells, heated-sample series, 0 ug/ml antibody (blank).

B1: 5C5 (antibody, V domains shown)
VH: EVKLVESGGGSVKPGGSLKLSCAASGFTFSNYVMSWVRQTPEKRLEWVATISSGGSYTYYPDSVKGRLTISRDNAKNTLYLQMSSLRSEDTAMYYCARGYDNGDYVMDYWGQGTSVTVSS
VL: DIVLTQSPASLAVSLGQRATISCRASESVDTYGNSFMHWYQQIPGQPPKVLIYRASNLESGIPARFSGSGSRTDFTLTINPVEAGDVATYYCQQTNEHPPTFGGGTKLEIK
notes: anti-human GARP clone; printed 5C5 on the sheets, 5c5 / m5c5 / 5C5 in the text; also called m5c5
Take B1: the binding result in experiment [1] is recorded as “binds”.

B2: huPIIO-1VH4VL1 (antibody, V domains shown)
VH: DVQLQESGPGLVKPSQTLSLTCTVSGYSITSDYAWNWIRQFPGNKLEWMGYISYSGSTSYTPSLKSRITISRDTSKNHFFLQLSSVTAEDTATYYCAKSGGDYYGSSSYWYFDVWGQGTTVTVSS
VL: DIVLTQSPSSLAVSLGERATMNCKSSQSLLNSRSQKNYLAWYQQKPGQPPKLLIYGASTRGSGVPDRFSGSGSGTDFTLTISSLQAEDVAVYYCQNDHSYPFTFGQGTKLEIKR
notes: Humanized IgG from Expi293, tested as culture supernatant; also called H4L1; HuPIIO-1VH4/L1
Regarding B2, the MFI worked out at 9.91 MFI in experiment [2]; 26.2 MFI in [3]; 27.3 MFI in experiment [4]; 24.8 MFI in experiment [5]; 25.4 MFI in [6]; 26.9 MFI in experiment [7]. Also, the MFI in [8] amounted to 24.2 MFI; in experiment [9], 9.91 MFI.

B3: huPIIO-1VH4VL2 (antibody, V domains shown)
VH: B2 VH
VL: B2 VL with A19V, L84V
notes: Humanized IgG from Expi293, tested as culture supernatant; also called H4L2; HuPIIO-1VH4/L2
As to B3, the MFI in experiment [2] came to 9.91 MFI; in [3], 24.9 MFI; in [4] it was 26.3 MFI; in [5], 22.4 MFI; in experiment [6] it was 25 MFI; in experiment [7], 25.1 MFI. For the same molecule, the MFI in experiment [8] worked out at 21.7 MFI; in experiment [9] it was 9.91 MFI.

B4: huPIIO-1VH4VL3 (antibody, V domains shown)
VH: B2 VH
VL: B2 VL with L15A, A19V, N22S, L84V, Q106S
notes: Humanized IgG from Expi293, tested as culture supernatant; also called H4L3; HuPIIO-1VH4/L3
Consider B4, for which the MFI in experiment [2] is 9.91 MFI; in experiment [3], 26.3 MFI; in experiment [4] it was 26.7 MFI; in [5], 25 MFI; in experiment [6], 25.8 MFI; in [7], 27 MFI. For the same molecule, the MFI in experiment [8] turned out to be 24.2 MFI; in experiment [9], 9.91 MFI.

For the origin of these results see US20240425571A1 (OHIO STATE INNOVATION FOUNDATION, published 2024).
